Results: patent publication US20170088610A1
Like-named read-outs stand apart in the source and are kept apart here.

Columns and labels:
[1] = molecular target: human nerve growth factor (human) (UniProt P01138); test: cell-based or functional assay
[2] = molecular target: rat nerve growth factor (rat) (UniProt P25427); test: cell-based or functional assay
[3] = molecular target: human nerve growth factor (human) (UniProt P01138); test: BIAcore SPR, Fab over immobilised human NGF
[4] = molecular target: human nerve growth factor (human) (UniProt P01138); test: BIAcore SPR, Fab over immobilised human NGF (100 RU)
[5] = molecular target: human nerve growth factor (human) (UniProt P01138); test: as above; remark: listed apart in the source
[6] = molecular target: human nerve growth factor (human) (UniProt P01138)

human nerve growth factor (human), sequence (P01138 122-241 limits assumed): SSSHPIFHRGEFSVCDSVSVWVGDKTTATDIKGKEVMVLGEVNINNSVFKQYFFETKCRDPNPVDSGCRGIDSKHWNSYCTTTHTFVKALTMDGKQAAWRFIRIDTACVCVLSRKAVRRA
rat nerve growth factor (rat), sequence (P25427 122-241 limits assumed): as the sequence (P01138 122-241 limits assumed) above, with S3T, I6V, R9M, M37T, D60A, D65E, M92T, G94D, V117A, A120G counted along it

Row | Substance | IC50, human NGF-dependent survival of mouse E13.5 trigeminal neurons (1.5 pM NGF) [1] | IC50, human NGF-dependent survival of mouse E13.5 trigeminal neurons (15 pM NGF) [1] | NGF-elicited survival of E17/18 trigeminal neurons [1] | IC50, rat NGF-dependent survival of mouse E13.5 trigeminal neurons (1.5 pM NGF) [2] | IC50, rat NGF-dependent survival of mouse E13.5 trigeminal neurons (15 pM NGF) [2] | Kd [3] | Kd [4] | koff [4] | kon [4] | koff [5] | IC50 (read off the curve), NGF-dependent survival of E13.5 trigeminal neurons (0.4 ng/ml human NGF, 48 h) [6]
1 | mouse monoclonal anti-NGF antibody 911 (Fab) | 63.5 pM | 322 pM | 20 nM | 34.6 pM | 161 pM | 10 nM | 3.7 nM | 9e-05 s⁻¹ | 22000 M⁻¹ s⁻¹ | 8.4e-05 s⁻¹ | –
2 | trkA receptor immunoadhesin (Fc fusion) | – | – | – | – | – | – | – | – | – | – | 0.07 nM
